Experimental findings from PMC5913134, “The IL-33-PIN1-IRAK-M axis is critical for type 2 immunity in IL-33-induced allergic airway inflammation” (Nature Communications, 2018) are described below.

Test [1] deals with WT, PIN1 KO and IRAK-M KO mice. As to the kind of experiment: IL-33-induced airway inflammation in mice. Format: in vivo, mouse. To be noted: for BALF TH2 cytokines (IL-4, -5 and -13): IL-33 intranasal. The method, then:
(§1) Male mice in each group, 3-5 weeks old were anesthetized using Isoflurane. The mice were treated intranasal with 200ng/mice/day for four continues days. By the fifth day the mice were killed by CO2 suffocation, and bronchial alveolar lavage fluid (BALF) was extracted using PBS. The lungs were extracted and fixed using 10% para formaldehyde. Immunofluresence of slide sections was performed. Slides were analyzed using anti-PIN1 antibodies and anti-IRAK-M antibodies or IgG as control and were counterstained using DAPI. In some cases, cells obtained from BALF were cytospined and the cells were fixed and stained in the same manner. For staining of the cells, Diff-Quick (Diff-Quik) Staining Protocol were used. All animal work was carried out in compliance with the ethical regulations approved by the Animal Care Committee, Beth Israel Deaconess Medical Center, Boston, MA, USA. The permission was granted to perform animal experiments by the Institutional Animal Care and Use Committee at Beth Israel Deaconess Medical Center, Boston, MA, USA.

Test [2] concerns CD11c^+ CD11b^+ CD205^+ cells. The experiment in a line: Flow analysis of lung CD11c+ dendritic cells after IL-33 challenge. To be noted: for change in CD11c^+ CD11b^+ CD205^+ cells: IL-33, n = 3. Format: in vivo, mouse. The method, then: as §1
Lungs were digested using Kollagenase D and dispase and the dendritic cells populations (CD11c^+ CD205^+ CD11b^+) were determined by staining the cells using the following antibodies: PE anti mouse CD11c (catalog number 117307), APC anti mouse CD205 (catalog number 138205), FITC anti mouse CD11b (catalog number 101205). For co stimulatory protein expression, FITC anti mouse CD40 (catalog number 124607), FITC anti mouse CD80 (catalog number 104705), FITC anti mouse CD86 (catalog number 105005) were used. For T cell (CD3^+ CD4^+) population isolation, the cells were stained with APC anti mouse CD3^+ (catalog number 100235) FITC anti mouse CD4^+ (catalog number 100405) before the cells were cell sorted. Human BALF samples were stained with FITC anti human CD15 (catalog number 301903) or FITC anti human CD205 (catalog number 342206). All antibodies were purchased from Biolegend and diluted according to manufacture instruction (1:100 dilution). Cells were analyzed using LSRII flow cytometer and FlowJo software. For cytospin the cells were spun onto glass slides, air dried and fixed using 4%PFA and stained with the indicated antibodies.

Another test has as its system PIN1. As to the kind of experiment: PIN1 enzymatic (PPIase) activity in DC2.4 cells. The format is cell-based, C57BL/6. To be noted: IL-33 100 ng/ml, 5 min, substrate Suc-Ala-Glu-Pro-Phe-pNa. The method, then: DC2.4 cell line were either treated with 100ng/ml IL-33 for indicate time (0, 5 and 15 min). The cells were harvested and homogenized in a reaction buffer containing 100 mM NaCl, 50 mM HEPES, pH 7, 2 mM DTT, and 0.04 mg/ml BSA. The lysates were cleared by centrifugation at 12,000 g for 10 minutes (4 °C). PPIase activity was measured using equal amounts of […] cytoplasmic lysates and α-chymotrypsin using a synthetic tetrapeptide substrate Suc-Ala-Glu-Pro-Phe-pNa (Peptides International). Absorption at 390 nm was measured using an Ultrospec 2000 spectrophotometer. The results are expressed as the mean of 3 measurements from a single experiment and are representative of 3 independent experiments.

Test [3] concerns naive CD4^+ cells co-cultured with BMDCs. The experiment in a line: BMDC / naive CD4+ T cell co-culture TH2 polarization, IL-5 and IL-13 secretion. The format is cell-based, C57 B6 mice. To be noted: WT BMDC + naive CD4+ T cells, IL-33 50 ng/ml, 5 days. The method, then:
Supplementary Figure 7. IRAK-M KO or Pin1 KO derived bone marrow dendritic cells attenuates Naïve TH2 cell differentiation upon IL-33 induction in co culture experiment. Naïve CD4+ T cells isolated from C57 B6 mice were cultured with or without IL-33 (50ng/ml) and BMDCs isolated from WT, IRAK-M KO (a) or Pin1 KO mice (b) in a 1:5 ratio for 5 days with no antigen being added. In some cases as indicated 5 µM of ATRA was added to the medium two days prior to T cell co culturing and during the experiment. Supernatants were analyzed for cytokines on day 5. The data were analyzed by a Student's two-tailed t test and the values are reported as mean ± standard errors of the means (SEM). *- statistical significance (P<0.05), **- significance (P<0.01).

Test [4] has as its system Il6, Csf3, Cxcl2 and Ccl5 expression in DC2.4 cells. The experiment in a line: qRT-PCR of Il6, Csf3, Cxcl2 and Ccl5 in DC2.4 cells. Conditions: IL-33, pLKO control DC2.4 cells. The format is cell-based, C57BL/6. On the technique in general: In qPCR the cycle at which signal appears reflects the starting amount.
Procedure: Also as indicated, some cells were pretreated for 3 days with 5 μM or 10 μM of ATRA before IL-33 induction. e Relative gene expression of Il6, Csf3, Cxcl2 and Ccl5 in the different samples as in d normalized to actin. f IRAK-M was stably expressed in pLKO or TET on shPin1 expressing cells, followed by induction with IL-33, before western blot to examine protein expression of IRAK-M, PIN1 and tubulin as well as g qRT-PCR to determine the relative gene expression for Il6, Csf3, Cxcl2 and Ccl5 in the different samples.
SYBR Green PCR Master Mix (Applied Biosystems, Foster City, CA) was used for two-step real-time RT-PCR analysis on an Applied Biosystems StepOnePlus Real Time PCR instrument. […] Expression value of the targeted gene in a given sample was normalized to the corresponding expression of Actin. The 2^–ΔΔCt method was used to calculate relative expression of the targeted genes.
For another test, the system named is IRAK-M. As to the kind of experiment: IRAK-M protein levels in BMDCs. Format: cell-based, mouse. To be noted: BMDC from WT and PIN1 KO mice, IL-33, time-dependent.

B1: IL-33: Recombinant mouse IL-33 purchased from BioLegend (protein, UniProt Q8BVZ5 1-266, looked up)
Interleukin-33: MRPRMKYSNSKISPAKFSSTAGEALVPPCKIRRSQQKTKEFCHVYCMRLRSGLTIRKETSYFRKEPTKRYSLKSGTKHEENFSAYPRDSRKRSLLGSIQAFAASVDTLSIQGTSLLTQSPASLSTYNDQSVSFVLENGCYVINVDDSGKDQEQDQVLLRYYESPCPASQSGDGVDGKKLMVNMSPIKDTDIWLHANDKDYSVELQRGDVSPPEQAFFVLHKKSSDFVSFECKNLPGTYIGVKDNQLALVEEKDESCNNIMFKLSKI
Take B1: the “response (infiltrates, cell counts)” value in test [1] (PIN1 KO mice, intranasal 200 ng/mice/day, 4 days) was “very mild responses”. Further, the “BALF TH2 cytokines (IL-4, -5 and -13)” value was “dramatically attenuated” in test [1] (PIN1 KO or IRAK-M KO mice) and “high levels of TH2 cytokines” in test [1] (WT mice). For the same molecule, in test [1] (PIN1 KO vs WT mice, IL-33 intranasal 200 ng/mice/day, 4 days), the “BALF TH2 cytokines (IL-4, -5, -6 and -13)” value is on record as “drastically lower”. Further, in test [1] (WT mice, intranasal 200 ng/mice/day, 4 days), the lung inflammation entry is “moderate to severe inflammation and high levels of infiltrating cells, especially eosinophils”. Further, the “lung inflammation and bronchial remodeling” value in test [1] (WT mice, intranasal IL-33) was “severe lung inflammation and bronchial remodeling”. The “IRAK-M expression in lung cells” value in test [1] (WT mice, intranasal IL-33, immunostaining) is given as “dramatically increased IRAK-M expression”. Further, in test [1] (WT mice, whole lung tissue, qRT-PCR), the “lung expression of Il6, Csf3, Cxcl2 and Ccl5” value was “upregulated”. Besides, the “change in CD11c^+ CD11b^+ CD205^+ cells” value in test [2] (IRAK-M KO mice) was “non significant (NS) increase”; in test [2] (PIN1 KO mice) it was “more moderate increase”. The “CD40 and CD80 overexpression in lung CD11c^+ cells” value in test [2] (IRAK-M KO mice, IL-33 treated, n=3) is recorded as “attenuated”. Moreover, in test [2] (WT mice, IL-33 treated, n=3), the “CD40 and CD80 expression in lung CD11c^+ cells” value is “elevated”. For the same molecule, in test [2] (WT mice, IL-33 vs PBS, n = 3, P < 0.05), the “induction of CD11c^+ CD11b^+ CD205^+ cells” value is listed as 3 fold. Also, in the test with PIN1, the PIN1 activity result is recorded as “dramatically elevated PIN1 activity”. Besides, the “IL-5 and IL-13 secretion” value in test [3] was “high levels of IL-5 and -13”. In test [4], the “expression of the four target genes” value was “upregulated”. In addition, the IRAK-M protein levels entry with IRAK-M is recorded as “increased IRAK-M protein levels in WT, but not PIN1 KO cells”.
